Test results as given in US7098001B2, “Polypeptides having dipeptidyl aminopeptidase activity and nucleic acids encoding same” (Novozymes, Inc., priority 1997, dated 2006).

Tests used:
[1] = activity of the purified enzymes on Leu-pNA; format: biochemical; conditions: 100-fold dilution
Experimental: The enzyme solution was then loaded onto a XK-26 column containing Q-Sepharose Big Beads pre-equilibrated with 20 mM phosphate buffer pH 7.5 buffer. A gradient was run from 0 to 300 mM NaCl, and then washed with 350 ml of 300 mM NaCl. Fractions were assayed for Leu-pNA activity according to the following protocol. The substrate was prepared by dissolving 2 mg of Leu-pNA (Sigma Chemical Co., St. Louis, Mo.) in 20 μl of DMSO. Then, 980 μl of 50 mM sodium phosphate pH 7.5 buffer was added. In a 96 well microtiter plate, 100 μl of the substrate solution was added to 100 μl of Aspergillus oryzae aminopeptidase I (100 fold diluted in 50 mM sodium phosphate pH 7.5 buffer) and the increase in absorbance at 405 nm was measured for 4 minutes using a SpectroMax 340 plate reader.
The purified aminopeptidase I was determined to have an activity of 26.822 LAPUs/ml for Leu-pNA using an extinction coefficient of 10,000 for para-nitroaniline at 405 nm. LAPU is defined as the leucine aminopeptidase activity which is determined as described in AF 298/1-GB (available on request from Novo Nordisk A/S, Denmark). The purified dipeptidyl aminopeptidase I was determined to have an activity of 11.54 DPAPU/ml for Ala-Pro-pNA, also using an extinction coefficient of 10000 for paranitroaniline. […]

[2] = tested on: gelatin, soy bean meal tablets, wheat gluten, and sodium-caseinate; experiment: degree of hydrolysis (DH) assays, OPA method; format: biochemical; conditions: 0.125 mg added to FLAVOURZYME 3 mg and ALCALASE 3 mg; 50 C, 18 hours; all proteins tested
Experimental: The degree of hydrolysis (DH) assays were performed at 50 ? C for 18 hours as a mini-hydrolysis on a 10 ml scale using gelatin, soy bean meal tablets, wheat gluten, and sodium-caseinate at a 2% concentration adjusted to pH 7, if necessary, with no pH adjustment during hydrolysis. The hydrolyses were inactivated at 85 ? C for 3 minutes in a waterbath. The enzymes used were FLAVOURZYME™ with ALCALASE™ 2.4L (Novo Nordisk A/S, Bagsvrd, Denmark) and dipeptidyl aminopeptidase I with FLAVOURZYME™ and ALCALASE™ 2.4L. FLAVOURZYME™, ALCALASE™, and dipeptidyl aminopeptidase I were dosed at 3 mg, 3 mg, 0.125 mg, respectively, per 200 mg of protein per ml.
The DH, as defined by Adler-Nissen (1986, Enzymic Hydrolysis of Food Proteins, Elsevier Applied Science Publishers), was determined by reaction of the supernatant with OPA (ortho-phtaldialdehyde, Sigma Chemical Co., St. Louis, Mo.). […]
A volume of 25 μl of suitably diluted supernatant was mixed with 200 μl of OPA reagent in a microtiter plate well and allowed to react for exactly 2 minutes at 25 ? C The absorbance at 340 nm was measured in a microtiter plate reader and compared to the absorbance of a […] L-serine standard solution after subtraction of the blank value (water reacted with OPA-reagent). […] The degree of hydrolysis was calculated on basis of the total amount of protein in the hydrolysis mixture (not on basis of soluble protein).

velocity on Leu-pNA [1]: < 2 mOD/min
increase of the degree of hydrolysis above FLAVOURZYME and ALCALASE alone [2]: 5%
B1: dipeptidyl aminopeptidase I: Recombinant Aspergillus oryzae 1568 (ATCC 20386) dipeptidyl aminopeptidase I, 771 amino acids (SEQ ID NO:2), produced in Fusarium and purified (protein, listed as Aspergillus oryzae)
chain: MKYSKLLLLLVSVVQALDVPRKPHAPTGEGSKRLTFNETVVKQAITPTSRSVQWLSGAEDGSYVYAAEDGSLTIENIVTNESRTLIPADKIPTGKEAFNYWIHPDLSSVLWASNHTKQYRHSFFADYYVQDVESLKSVPLMPDQEGDIQYAQWSPVGNTIAFVRENDLYVWDNGTVTRITDDGGPDMFHGVPDWIYEEEILGDRYALWFSPDGEYLAYLSFNETGVPTYTVQYYMDNQEIAPAYPWELKIRYPKVSQTNPTVTLSLLNIASKEVKQAPIDAFESTDLIIGEVAWLTDTHTTVAAKAFNRVQDQQKVVAVDTASNKATVISDRDGTDGWLDNLLSMKYIGPIKPSDKDAYYIDISDHSGWAHLYLFPVSGGEPIPLTKGDWEVTSILSIDQERQLVYYLSTQHHSTERHLYSVSYSTFAVTPLVDDTVAAYWSASFSANSGYYILTYGGPDVPYQELYTTNSTKPLRTITDNAKVLEQIKDYALPNITYFELPLPSGETLNVMQRLPPGFSPDKKYPILFTPYGGPGAQEVTKRWQALNFKAYVASDSELEYVTWTVDNRGTGFKGRKFRSAVTRQLGLLEAEDQIYAAQQAANIPWIDADHIGIWGWSFGGYLTSKVLEKDSGAFTLGVITAPVSDWRFYDSMYTERYMKTLSTNEEGYETSAVRKTDGFKNVEGGFLIQHGTGDDNVHFQNSAALVDLLMGDGVSPEKLHSQWFTDSDHGISYHGGGVFLYKQLARKLYQEKNRQTQVLMHQWTKKDLEE
